Measured values as given in paper PMC4686829 (Nature Communications, 2015).

Key:
[1] = target: globular head of H5 HA, HA1 fragment between residue D55 and E271 (F55–271) of A/Anhui/1/2005 (Influenza A virus A/Anhui/1/2005 (H5N1)); assay: crystal structure; settings: both partners purified
[2] = target: HA fragment between residues I60 and G263 (F60–263) of A/Anhui/1/05, displayed on yeast (Influenza A virus A/Anhui/1/2005 (H5N1), strain); assay: flow cytometry on cells; settings: one partner purified

B1: 65C6 Fab (Fab, V domains shown)
VH: EVQLVQSGAEVKKPGESLRISCKGFAYSSTYFWISWVRQMPGKGLEWMGRIDPTDSYINYSPSFQGHVTISVDRSISTVYLQWSSLKASDTAMYYCAYHRRGHFYGSGSAWDWFESWGQGTLVTVSS
VL: EIVLTQSPLTLSVSPGERATLSCRASQSVSSNLAWYQQMPGQAPRLLIYGASTRATGIPARLSGSASGTEFTLTISSLQSEDFAVYYCQQYNNWPYTFGQGTKLEIK
- binding result [1]: binds

B2: AVFluIgG03 Fab (Fab, V domains shown)
VH: EVQLLESGGGLVQPGGSLRVSCTNSGFTFSNYAMSWVRQAPGKGLEWVSAISGNGGSGTYYADSVKGRFTISRDNSKNTMYLQMNSLRAEDTAVYYCVRDDSYDGGGHYGLHNWFDSWGQGTLVTVSS
VL: SVLTQPPSVSGAPGQRVTISCTGSSSNIGAGYDVHWYQQLPGTAPKLLIYGNSNRPSGVPDRFSGSKSGTSASLAITGLQAEDEADYYCQSYDSSVVVFGGGTKLEIK
notes: also called Fab of AVFluIgG03; AVFulgG03
- binding result [1]: binds

B3: 65C6, full-length human IgG1 (antibody, V domains shown)
VH: B1 VH
VL: B1 VL
notes: IgG1; source: 293 T cells, transient transfection, purified (Protein A agarose)
- binding result [2]: binds

B4: AVFluIgG03, full-length human IgG1 (antibody, V domains shown)
VH: B2 VH
VL: B2 VL
notes: IgG1; also called AVFulgG03; AVFluIg03; source: 293 T cells, transient transfection, purified (Protein A agarose)
- binding result [2]: binds

B5: 100F4, full-length human IgG1 (antibody, V domains shown)
VH: QLQLQESGLGLVKPSETLSLTCTVSGDSVSSGSYYWSWLRQPPGKGLEWIGNMHGSGHTNYNPSLKSRVTITPDTSKNHFSLRLSSVTAADTAVYYCARALLTTVTTFEYWGQGTLVTVSS
VL: QSALTQPPSVSGAPGQRVTIPCTGGSSNIGAGYSVHWYQQLPGTAPKLLIYGSNSRPSGVPDRFSGSKSGTSASLAITGLRPEDEADYYCQSYDSSLSGSQVFGAGTRVTVL
notes: as for B3
- binding result [2]: binds
